Test results as given in publication PMC11006747, “The E3 ubiquitin ligase ITCH negatively regulates intercellular communication via gap junctions by targeting connexin43 for lysosomal degradation” (Cellular and Molecular Life Sciences: CMLS, 2024).

Molecular target: T1, Cx43-WT (human connexin43, transiently expressed) (human, UniProt P17302 1-382)
T1 construct: human connexin43 (Cx43; gene GJA1) from the expression plasmid pcDNA I/Neo; source: HeLa cells negative for Cx43, transfected (pcDNA I/Neo), in lysate
Test: co-IP; lysates of HeLa cells negative for Cx43, co-transfected 48 h with Cx43-WT or Cx43-P283A and HA-ITCH-WT, immunoprecipitated with anti-Cx43 antibodies cross-linked to protein A-Sepharose, 2 h at 4 °C; HA-ITCH detected by western blot with anti-HA and normalised to Cx43 in the immunoprecipitate; in one experiment cells treated with DMSO or bafilomycin A1 (200 nM) for the last 18 h; rabbit IgG as control
Settings: partners not purified

T1 sequence (P17302 whole entry): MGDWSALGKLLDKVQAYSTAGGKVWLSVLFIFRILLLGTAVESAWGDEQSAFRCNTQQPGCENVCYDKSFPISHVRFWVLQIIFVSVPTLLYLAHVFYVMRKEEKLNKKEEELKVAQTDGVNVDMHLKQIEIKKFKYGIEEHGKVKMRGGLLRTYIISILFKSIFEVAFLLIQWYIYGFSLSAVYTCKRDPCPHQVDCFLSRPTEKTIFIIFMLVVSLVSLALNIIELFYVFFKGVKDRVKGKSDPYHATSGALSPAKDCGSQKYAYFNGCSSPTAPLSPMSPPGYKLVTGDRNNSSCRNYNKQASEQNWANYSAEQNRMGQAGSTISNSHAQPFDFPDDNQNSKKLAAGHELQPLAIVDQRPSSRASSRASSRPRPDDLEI

B1: HA-ITCH-wild type (enzyme)
chain: not shown
notes: E3 ubiquitin ligase ITCH, wild type, gene synthesised (GeneArt, Thermo Fisher); Isoform inferred only from the printed number of the catalytic cysteine (C830A mutant of the same cDNA); also called HA-ITCH-WT; source: HeLa cells negative for Cx43, transfected (pcDNA3.4-TOPO), in lysate
fold increase of co-immunoprecipitated HA-ITCH with bafilomycin A1 against DMSO: ~4 fold
